Experimental data as given in patent US11766479 (ZHEJIANG SHIMAI PHARMACEUTICAL, dated 2023).

Legend:
[1] = biological target: T1, recombinant human ENPP3 (full-length extracellular domain) (human, UniProt O14638 31-875); assay: ELISA, recombinant human ENPP3 coated at 200 ng per well, detection with HRP anti-FLAG
T1 construct: extracellular domain; Bought protein; also called Human ENPP3 (CD203c) protein
T1 sequence (looked up): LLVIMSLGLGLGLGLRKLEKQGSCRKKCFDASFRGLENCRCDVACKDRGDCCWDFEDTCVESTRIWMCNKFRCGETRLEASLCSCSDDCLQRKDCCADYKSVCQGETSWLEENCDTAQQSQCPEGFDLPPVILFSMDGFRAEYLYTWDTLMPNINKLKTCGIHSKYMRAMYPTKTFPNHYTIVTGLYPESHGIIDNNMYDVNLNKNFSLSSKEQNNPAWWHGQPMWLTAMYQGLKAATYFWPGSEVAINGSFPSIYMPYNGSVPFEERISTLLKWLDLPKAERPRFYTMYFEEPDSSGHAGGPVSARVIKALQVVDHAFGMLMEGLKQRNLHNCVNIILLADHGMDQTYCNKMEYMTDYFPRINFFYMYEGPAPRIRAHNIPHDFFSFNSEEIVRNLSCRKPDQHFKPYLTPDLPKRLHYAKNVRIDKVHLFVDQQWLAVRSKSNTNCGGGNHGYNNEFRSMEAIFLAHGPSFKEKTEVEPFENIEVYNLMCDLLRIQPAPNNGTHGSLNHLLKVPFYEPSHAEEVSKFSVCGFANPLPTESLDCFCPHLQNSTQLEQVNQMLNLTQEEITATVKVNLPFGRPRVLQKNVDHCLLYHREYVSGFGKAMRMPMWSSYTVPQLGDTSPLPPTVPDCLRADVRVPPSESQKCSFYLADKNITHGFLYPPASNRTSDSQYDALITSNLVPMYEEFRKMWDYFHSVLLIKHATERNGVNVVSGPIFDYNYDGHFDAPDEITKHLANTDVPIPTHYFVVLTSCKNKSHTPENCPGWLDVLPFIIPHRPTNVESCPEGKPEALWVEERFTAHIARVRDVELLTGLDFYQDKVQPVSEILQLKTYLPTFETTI
Protocol: The hexahistidine (HHHHHH, SEQ ID NO: 35)-tagged 3A10 Fab was expressed in *E. coli* strain HB2151 and purified from the soluble fraction of periplasm by using the Ni-NTA resin. Then ELISA was performed by using standard protocols to measure binding affinity to recombinant human ENPP3 (full-length extracellular domain). Briefly, the recombinant human ENPP3 (ACROBiosystems) was coated on Corning EIA/RIA high-binding 96-well plates (Corning Inc.) at 200 ng per well overnight at 4° C. and blocked with 3% nonfat milk in PBS (pH7.4). Five-fold serially diluted antibodies were added accordingly and then incubated at room temperature for 2 h. The plates were washed with PBS containing 0.05% TWEEN® 20. Bound antibodies were detected by HRP-conjugated anti-FLAG tag antibody (Sino Biological). The assay was developed at room temperature with TMB substrate (Solarbio) and OD value was measured at 450 nm with a microplate reader.

[2] = biological target: T1, recombinant human ENPP3 (full-length …); assay: ELISA, recombinant human ENPP3 coated at 100 ng per well, detection with anti-human IgG Fc-peroxidase
Protocol: ELISA was performed according to standard protocols, to determine binding affinity of anti-ENPP3 3A10 mAb to recombinant human ENPP3 (AcroBiosystems). Briefly, recombinant human ENPP3 was coated on Corning EIA/RIA high-binding 96-well plates (Corning Inc.) at 100 ng per well overnight at 4° C. and blocked with 3% nonfat milk in PBS (pH7.4). Five-fold serially diluted antibodies were added and incubated at 37° C. for 1 h. The plates were washed with PBS containing 0.05% TWEEN® 20. Bound antibodies were detected by anti-human IgG (Fc-specific)-peroxidase antibody (Sigma). The assay was developed at room temperature with TMB substrate (Solarbio) and monitored at 450 nm with a microplate reader. The half-maximal binding ($EC50$) was calculated by fitting the data to the Langmuir adsorption isotherm.

B1: hexahistidine-tagged 3A10 Fab (Fab, V domains shown)
VH: EVQLVESGGGLVKPGGSLRLSCAASGFTFSNAWMSWVRQAPGKGLEWVSYISSSGSTIYYADSVKGRFTISRDNAKNSLYLQMNSLRAEDTAVYYCARLAGPYYFDYWGQGTLVTVSS
VL: QSVVTQPPSVSAAPGQKVTISCSGSSSNIGNNYVSWYQQLPGTAPKLLIYDNNKRPSGIPDRFSGSKSGTSATLGIDGLRTGDEAEYFCGVWDSSLRAELFAGGTKVTVL
notes: Human Fab from a phage library with a lambda light chain, made in E. coli HB2151; also called Fab 3A10; anti-ENPP3 Fab 3A10
B1 was tested, and the EC50 [1] was 9.17 nM.

B2: anti-ENPP3 3A10 mAb (antibody, human IgG1, lambda, V domains shown)
VH: EVQLVESGGGLVKPGGSLRLSCAASGFTFSNAWMSWVRQAPGKGLEWVSYISSSGSTIYYADSVKGRFTISRDNAKNSLYLQMNSLRAEDTAVYYCARLAGPYYFDYWGQGTLVTVSS
VL: QSVVTQPPSVSAAPGQKVTISCSGSSSNIGNNYVSWYQQLPGTAPKLLIYDNNKRPSGIPDRFSGSKSGTSATLGIDGLRTGDEAEYFCGVWDSSLRAELFAGGTKVTVLS
notes: Intact human IgG1 with wild type Fc and a lambda light chain, expressed in 293FS cells; also called anti-ENPP3 monoclonal antibody
B2 showed an EC50 [2] of 0.107 nM.
